This experiment deals with pooled human IgG (human). Kind of experiment: cell-based or functional assay.

The text below walks through data of patent US20250027068A1.

B1: VRT-50 (Fc fusion)
chain: VTSVWTKGVTPPTDFIYGEDVLHAPYKAGQGWYDITKTFNGKDNLLCGAATAGNMLHWWFDQNKEQIENYLKKHPEKQKIIFNNQELFDLKAAIDTKDSQLDSKLFEYFKEKAFPYLSTKHLGVFPDHVIDMFINGYRLSLTNHGPTPVKRGSKDKRGGIFDAVFTRGVQSKLLTNRHDFKEKTLKEISDLIKQELTEGKALGISHTYANVRINHVINLWGADFDAEGNLEAIYVTDSDTNASIGMKKYFVGVNSNGKVAISAKEIEEDNIGAQVLGLFTLSTGQDIWNQTNDKTHTCPPCPAPEAAGAPSVFLFPPKPKDTLMISRTPEVTCVVVDVSHEDPEVKFNWYVDGVEVHNAKTKPREEQQNSTYRVVSVLTVLHQDWLNGKEYKCKVSNKALKAPIEKTISKAKGQPREPQVYTLPPSRDELTKNQVSLTCLVKGFYPSDIAVEWESNGQPENNYKTTPPVLDSDGSFFLYSKLTVDKSRWQQGNVFSCSVMHEALHNHYTQKSLSLSPG
The molecule B1 registered an Enzyme Activity Endpoint Assay, Fab′2 of 8 ng/µL; an Enzyme Activity Endpoint Assay, Fc of 226 ng/µL; an Enzyme Activity Endpoint Assay, IgG of 295 ng/µL; an Enzyme Activity Endpoint Assay, scIgG of 360 ng/µL.

B2: VRT-52 (Fc fusion)
chain: VTSVWTKGVTPPTDFIYGEDVLHAPYKAGQGWYDITKAFDGGDNLLCGAATAGNMLHWWFDQNKEQIENYLKKHPEKQKIIFNNQELFDLKAAIDTKDSQTNSELFNYFKEKAFPYLSTKHLGVFPDHVIDMFINGYRLSLTNHGPTPVKRGSKDKRGGIFDAVFTRGVQSKLLTNRHDLKNKTLKEISDLIKQELTEGKALGISHTYANVRINHVINLWGADFDAEGNLEAIYVTDSDTNASIGMKKYFVGVNSNGKVAISAKEIEEDNIGAQVLGLFTLSTGQDIWNQTNDKTHTCPPCPAPEAAGAPSVFLFPPKPKDTLMISRTPEVTCVVVDVSHEDPEVKFNWYVDGVEVHNAKTKPREEQQNSTYRVVSVLTVLHQDWLNGKEYKCKVSNKALKAPIEKTISKAKGQPREPQVYTLPPSRDELTKNQVSLTCLVKGFYPSDIAVEWESNGQPENNYKTTPPVLDSDGSFFLYSKLTVDKSRWQQGNVFSCSVMHEALHNHYTQKSLSLSPG
In turn, B2 returned an Enzyme Activity Endpoint Assay, Fab′2 of 6 ng/µL; an Enzyme Activity Endpoint Assay, Fc of 213 ng/µL; an Enzyme Activity Endpoint Assay, IgG of 238 ng/µL; an Enzyme Activity Endpoint Assay, scIgG of 311 ng/µL.

B3: VRT-53 (Fc fusion)
chain: VTSVWTKGVTPPTNFTYGEDVLHAPYVANQGWYDITKTFNGKDNLLCGAATAGNMLHWWFDQNKEQIENYLKKHPEKQKIIFNNQELFDLKAAIDTKDSQLDSKLFEYFKEKAFPYLSTKHLGVFPDHVIDMFINGYRLSLTNHGPTPVKRGSKDKRGGIFDAVFTRGVQSKLLTNRHDLKNKTLKEISDLIKQELTEGKALGISHTYANVRINHVINLWGADFDAEGNLEAIYVTDSDTNASIGMKKYFVGVNSNGKVAISAKEIEEDNIGAQVLGLFTLSTGQDIWNQTNDKTHTCPPCPAPEAAGAPSVFLFPPKPKDTLMISRTPEVTCVVVDVSHEDPEVKFNWYVDGVEVHNAKTKPREEQQNSTYRVVSVLTVLHQDWLNGKEYKCKVSNKALKAPIEKTISKAKGQPREPQVYTLPPSRDELTKNQVSLTCLVKGFYPSDIAVEWESNGQPENNYKTTPPVLDSDGSFFLYSKLTVDKSRWQQGNVFSCSVMHEALHNHYTQKSLSLSPG
The molecule B3 displayed an Enzyme Activity Endpoint Assay, Fab′2 of 0 ng/µL; an Enzyme Activity Endpoint Assay, Fc of 209 ng/µL; an Enzyme Activity Endpoint Assay, IgG of 326 ng/µL; an Enzyme Activity Endpoint Assay, scIgG of 339 ng/µL.
